Data reported in IntAct's records for PubMed 22124327.

Target: otub1_human OTUB1 (UniProt Q96FW1)
Sequence (Q96FW1 whole entry): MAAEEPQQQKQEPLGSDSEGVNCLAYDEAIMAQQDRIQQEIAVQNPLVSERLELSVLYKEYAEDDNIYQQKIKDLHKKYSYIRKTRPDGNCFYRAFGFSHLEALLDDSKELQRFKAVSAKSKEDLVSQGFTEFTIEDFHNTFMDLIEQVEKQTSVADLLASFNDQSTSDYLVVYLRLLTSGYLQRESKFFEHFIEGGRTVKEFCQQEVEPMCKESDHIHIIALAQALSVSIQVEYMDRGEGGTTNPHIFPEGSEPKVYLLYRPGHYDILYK

Ubiquitin-conjugating enzyme E2 D1 (Homo sapiens), P51668 D87A, sequence (P51668 whole entry D87A): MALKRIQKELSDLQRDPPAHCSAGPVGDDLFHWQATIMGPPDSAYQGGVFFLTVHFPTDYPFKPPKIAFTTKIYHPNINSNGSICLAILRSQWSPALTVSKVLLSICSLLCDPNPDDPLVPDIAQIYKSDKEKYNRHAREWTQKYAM

effect of a mutation on the interaction: disrupting interaction
Substance: Ubiquitin-conjugating enzyme E2 D1 (Homo sapiens), P51668 D87A
